In the supplement of paper PMC11246515:
± gives the standard deviation of the averaged measurements.

Test: total protein half-life in vivo (active degradation + dilution); higher = more stable protein
[1] = E. coli NCM3722 delta-clpP delta-lon delta-hslV, growth: N-lim chemostat, doubling time 6 h
[2] = E. coli NCM3722 delta-clpP, growth: N-lim chemostat, doubling time 6 h
[3] = E. coli NCM3722 delta-hslV, growth: N-lim chemostat, doubling time 6 h
[4] = E. coli NCM3722 delta-lon, growth: N-lim chemostat, doubling time 6 h
[5] = E. coli NCM3722 delta-smpB, growth: N-lim chemostat, doubling time 6 h
[6] = wild type E. coli NCM3722, growth: C-lim chemostat, doubling time 3 h
[7] = wild type E. coli NCM3722, growth: C-lim chemostat, doubling time 6 h
[8] = wild type E. coli NCM3722, growth: C-lim chemostat, doubling time 12 h
[9] = wild type E. coli NCM3722, growth: N-lim chemostat, doubling time 6 h
[10] = wild type E. coli NCM3722, growth: N-lim chemostat, doubling time 12 h
[11] = wild type E. coli NCM3722, growth: P-lim chemostat, doubling time 6 h
[12] = wild type E. coli NCM3722, growth: P-lim chemostat, doubling time 12 h

Sequence	total protein half-life in vivo [1] [h]	total protein half-life in vivo [2] [h]	total protein half-life in vivo [3] [h]	total protein half-life in vivo [4] [h]	total protein half-life in vivo [5] [h]	total protein half-life in vivo [6] [h]	total protein half-life in vivo [7] [h]	total protein half-life in vivo [8] [h]	total protein half-life in vivo [9] [h]	total protein half-life in vivo [10] [h]	total protein half-life in vivo [11] [h]	total protein half-life in vivo [12] [h]
MTGKKRSASSSRWLQEHFSDKYVQQAQKKGLRSRAWFKLDEIQQSDKLFKPGMTVVDLGAAPGGWSQYVVTQIGGKGRIIACDLLPMDPIVGVDFLQGDFRDELVMKALLERVGDSKVQVVMSDMAPNMSGTPAVDIPRAMYLVELALEMCRDVLAPGGSFVVKVFQGEGFDEYLREIRSLFTKVKVRKPDSSRARSREVYIVATGRKP [P0C0R7]	5.17 ± 0.46	3.946 ± 0.035	4.42 ± 0.32	4.55 ± 0.18	4.52 ± 0.28	2.81 ± 0.034	5.87 ± 0.41	11.4 ± 1.5	4.45 ± 0.14	7.904 ± 0.057	5.13 ± 0.14	8.89 ± 0.018
MTHDNIDILVVDDDISHCTILQALLRGWGYNVALANSGRQALEQVREQVFDLVLCDVRMAEMDGIATLKEIKALNPAIPVLIMTAYSSVETAVEALKTGALDYLIKPLDFDNLQATLEKALAHTHSIDAETPAVTASQFGMVGKSPAMQHLLSEIALVAPSEATVLIHGDSGTGKELVARAIHASSARSEKPLVTLNCAALNESLLESELFGHEKGAFTGADKRREGRFVEADGGTLFLDEIGDISPMMQVRLLRAIQEREVQRVGSNQIISVDVRLIAATHRDLAAEVNAGRFRQDLYYRLNVVAIEVPSLRQRREDIPLLAGHFLQRFAERNRKAVKGFTPQAMDLLIHYDWPGNIRELENAVERAVVLLTGEYISERELPLAIASTPIPLGQSQDIQPLVEVEKEVILAALEKTGGNKTEAARQLGITRKTLLAKLSR	5.51 ± 2.1	3.79 ± 0.11	2.98 ± 0.35	4.45 ± 1.4	2.79 ± 0.13	2.64 ± 0.3	3.94 ± 1.3	6.74 ± 1.1	2.89	4.34 ± 0.63	3.93 ± 0.27	7.36 ± 0.67
MTHDNKLQVEAIKRGTVIDHIPAQIGFKLLSLFKLTETDQRITIGLNLPSGEMGRKDLIKIENTFLSEDQVDQLALYAPQATVNRIDNYEVVGKSRPSLPERIDNVLVCPNSNCISHAEPVSSSFAVRKRANDIALKCKYCEKEFSHNVVLAN [P0A7F3]	5.57 ± 0.82	4.6 ± 0.65	5.27 ± 1.8	4.92 ± 0.13	5.09 ± 0.11	3.33 ± 0.51	5.19 ± 0.14	9.106 ± 0.024	4.14 ± 0.12	7.28 ± 0.48	5.64 ± 0.66	12.2 ± 1
MTHKATEILTGKVMQKSVLITGCSSGIGLESALELKRQGFHVLAGCRKPDDVERMNSMGFTGVLIDLDSPESVDRAADEVIALTDNCLYGIFNNAGFGMYGPLSTISRAQMEQQFSANFFGAHQLTMRLLPAMLPHGEGRIVMTSSVMGLISTPGRGAYAASKYALEAWSDALRMELRHSGIKVSLIEPGPIRTRFTDNVNQTQSDKPVENPGIAARFTLGPEAVVDKVRHAFISEKPKMRYPVTLVTWAVMVLKRLLPGRVMDKILQG [P0AFP4]	6.09 ± 0.25	6.01 ± 0.54	5.32 ± 1.6	6.02 ± 0.67	5.568 ± 0.03	3.07 ± 0.11	6.19 ± 0.11	13.6 ± 1.8	6.01 ± 0.4	11.9 ± 0.34	6.027 ± 0.025	10.4 ± 1.3
MTHLELVPVPPVAQLAGVSQHYGKTVALNNITLDIPARCMVGLIGPDGVGKSSLLSLISGARVIEQGNVMVLGGDMRDPKHRRDVCPRIAWMPQGLGKNLYHTLSVYENVDFFARLFGHDKAEREVRINELLTSTGLAPFRDRPAGKLSGGMKQKLGLCCALIHDPELLILDEPTTGVDPLSRSQFWDLIDSIRQRQSNMSVLVATAYMEEAERFDWLVAMNAGEVLATGSAEELRQQTQSATLEEAFINLLPQAQRQAHQAVVIPPYQPENAEIAIEARDLTMRFGSFVAVDHVNFRIPRGEIFGFLGSNGCGKSTTMKMLTGLLPASEGEAWLFGQPVDPKDIDTRRRVGYMSQAFSLYNELTVRQNLELHARLFHIPEAEIPARVAEMSERFKLNDVEDILPESLPLGIRQRLSLAVAVIHRPEMLILDEPTSGVDPVARDMFWQLMVDLSRQDKVTIFISTHFMNEAERCDRISLMHAGKVLASGTPQELVEKRGAASLEEAFIAYLQEAAGQSNEAEAPPVVHDTTHAPRQGFSLRRLFSYSRREALELRRDPVRSTLALMGTVILMLIMGYGISMDVENLRFAVLDRDQTVSSQAWTLNLSGSRYFIEQPPLTSYDELDRRMRAGDITVAIEIPPNFGRDIARGTPVELGVWIDGAMPSRAETVKGYVQAMHQSWLQDVASRQSTPASQSGLMNIETRYRYNPDVKSLPAIVPAVIPLLLMMIPSMLSALSVVREKELGSIINLYVTPTTRSEFLLGKQLPYIALGMLNFFLLCGLSVFVFGVPHKGSFLTLTLAALLYIIIATGMGLLISTFMKSQIAAIFGTAIITLIPATQFSGMIDPVASLEGPGRWIGEVYPTSHFLTIARGTFSKALDLTDLWQLFIPLLIAIPLVMGLSILLLKKQEG	6.26 ± 0.63	5.83 ± 0.27	5.89 ± 0.12	6.1709 ± 0.0027	5.63 ± 0.1	3.42 ± 0.3	5.34	13.5 ± 0.33	5.19 ± 0.17	11.8 ± 0.13	6.42 ± 0.41	13 ± 1.4
